{
  "source": "patent US20080267944",
  "system": "prothrombin",
  "data": [
    {"substance": "recombinant prothrombin activating protease (rLopap)", "values": [
      {"measurement": "prothrombin activation (thrombin formation followed with S-2238 chromogenic substrate)", "value": "The native Lopap and the rLopap are able to activate prothrombin using preferentially the S-2238 substrate"},
      {"measurement": "prothrombin activation, compared with native Lopap", "value": "in same concentrations, rLopap is less efficient"},
      {"measurement": "prothrombin hydrolysis (SDS-PAGE of fragments; prothrombin 10 uM, rLOPAP 2 uM)", "value": "Under non-reduced conditions bands of 72 kDa (prothrombin), of 52 kDa probably corresponding to the prothrombin F1.2, one of 36 kDa corresponding to the thrombin or to the prethrombin 2, and one of 24 kDa corresponding to the fragment 1 (F1) of the prothrombin could be observed"},
      {"measurement": "prothrombin hydrolysis in presence and absence of Factor Va (SDS-PAGE)", "value": "The same hydrolysis standards were obtained in presence and in absence of the Factor Va"}
    ]}
  ]
}
